# Source: publication PMC5964570
# Biological target: Angiotensin I converting enzyme (ACE) from rabbit lung (rabbit) (UniProt P12822)
# Sequence of UniProt P12822 (P12822 34-1310): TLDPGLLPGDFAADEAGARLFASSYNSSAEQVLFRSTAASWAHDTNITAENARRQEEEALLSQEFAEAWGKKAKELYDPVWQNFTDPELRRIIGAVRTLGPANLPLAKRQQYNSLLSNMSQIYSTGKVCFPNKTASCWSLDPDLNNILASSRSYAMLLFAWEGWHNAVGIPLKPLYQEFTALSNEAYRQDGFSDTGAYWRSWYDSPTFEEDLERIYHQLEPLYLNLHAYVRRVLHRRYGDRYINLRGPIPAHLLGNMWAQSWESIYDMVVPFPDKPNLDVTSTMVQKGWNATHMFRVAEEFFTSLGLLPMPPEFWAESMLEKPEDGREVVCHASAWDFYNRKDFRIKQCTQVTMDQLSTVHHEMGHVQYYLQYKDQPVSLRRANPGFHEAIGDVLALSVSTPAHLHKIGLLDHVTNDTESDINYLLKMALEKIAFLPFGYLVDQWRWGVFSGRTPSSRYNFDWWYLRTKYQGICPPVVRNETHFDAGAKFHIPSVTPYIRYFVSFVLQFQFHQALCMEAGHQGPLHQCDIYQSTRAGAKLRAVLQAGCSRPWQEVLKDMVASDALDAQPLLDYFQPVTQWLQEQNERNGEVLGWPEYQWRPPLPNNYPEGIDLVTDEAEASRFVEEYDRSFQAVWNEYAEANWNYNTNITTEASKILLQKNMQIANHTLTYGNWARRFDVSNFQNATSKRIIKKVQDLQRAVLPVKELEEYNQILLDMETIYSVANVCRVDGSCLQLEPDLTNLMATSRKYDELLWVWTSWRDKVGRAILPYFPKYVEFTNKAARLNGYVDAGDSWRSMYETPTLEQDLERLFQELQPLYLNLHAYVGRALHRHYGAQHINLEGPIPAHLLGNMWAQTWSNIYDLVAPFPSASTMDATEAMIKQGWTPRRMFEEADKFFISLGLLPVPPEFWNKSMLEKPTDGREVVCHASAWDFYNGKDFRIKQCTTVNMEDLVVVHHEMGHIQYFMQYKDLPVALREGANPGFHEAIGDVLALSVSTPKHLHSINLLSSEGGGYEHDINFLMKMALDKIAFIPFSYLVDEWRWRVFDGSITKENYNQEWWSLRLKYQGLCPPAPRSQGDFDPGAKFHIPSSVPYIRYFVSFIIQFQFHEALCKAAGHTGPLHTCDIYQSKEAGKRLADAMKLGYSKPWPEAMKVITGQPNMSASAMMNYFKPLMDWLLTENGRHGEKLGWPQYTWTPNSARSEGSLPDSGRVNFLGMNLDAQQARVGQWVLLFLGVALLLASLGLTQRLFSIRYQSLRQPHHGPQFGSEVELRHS
row,"IC50 of inhibition of ACE activity (hippuric acid released from Hip-His-Leu, RP-HPLC; 50 mM HEPES, 360 mM NaCl, pH 8.3, 37°C) [μM]",Substance
1,476,Cys-Arg (peptide)
2,13.8,Cys-Phe (peptide)
3,4.37,Cys-Cys (peptide)
